The record followed here is the supplement of paper PMC9170038.

This data set has as its system K4 kissing-loop RNA reporter. Nature of the data set: apparent KD of K4 kissing-loop reporter; higher = weaker reporter binding. As to conditions: Eterna round: R107. The procedure:
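RNA-MaP round R107: designed RNA switches with theophylline, tryptophan, arginine or FMN aptamers are transcribed on-chip within common flanks. They are titrated with a labelled K4 kissing-loop RNA reporter in RNA-MaP buffer (100 mM Tris pH 7.5, 80 mM KCl, 4 mM MgCl2), without ligand or with the indicated ligand. Median apparent KD per design.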

Setting [1] is: input ligand: theophylline 20 uM.
The mark [2] stands for this setting: input ligand: tryptophan 2.4 mM.
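Also: bound reporter read as fluorescence of individual clusters on recovered sequencing chips by microscopy, with normalized cluster intensities fitted with a binding model.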

Consider “UGCAUCAGUGCCUUUGAUCUAUUCCUGGAUACCAGAUCCUACUUGAUCCCUUGGCAGCCAUACGGGAGUGAUGUUCCAUGUAUCC [theeternabot_exclusion_KL_Theo_A_43]”, for which the “apparent KD of K4 kissing-loop reporter” value (input ligand: FMN 200 uM) is 210 nM; the “apparent KD of K4 kissing-loop reporter” value (input ligand: arginine 13.2 mM) was 199 nM; the “apparent KD of K4 kissing-loop reporter” value (input ligand: none) amounted to 209 nM; the “apparent KD of K4 kissing-loop reporter” value under setting [1] came out at 285 nM; the “apparent KD of K4 kissing-loop reporter” value under setting [2] was found to be 167 nM.

Turning to “UGCGCUGUGUACUGAAAUGUCCUGCGGGAUACCAGAGUCUUUUUAUUCCCUUGGCAGCUUGAGUGAUGUUUGAUGCCGUUCUUGU [frrgmullin]”, the “apparent KD of K4 kissing-loop reporter” value runs as follows: (input ligand: FMN 200 uM) 786 nM; (input ligand: arginine 13.2 mM) 423 nM; (input ligand: none) 710 nM; under setting [1], 738 nM; under setting [2], 470 nM.

For “UGGACCUGACUCGAUAAGAGUCAAUGAGAUACCAGUGACGAAAGUCACCCUUGGCAGCUCAACUGCCAGUGAUGUUGGUGGUCCU [#SwitchBubble 2 #StaticStem]”, the “apparent KD of K4 kissing-loop reporter” value was 605 nM (input ligand: FMN 200 uM); 389 nM (input ligand: arginine 13.2 mM); 769 nM (input ligand: none); 703 nM under setting [1]; 528 nM under setting [2].

Regarding “UGGAGUUGACGAAAAGUCAACUCCCGAGAAGGAGCGGACGAAAGUCCAGGUAGGUCGCUCACUACCAGUGAUGUUGGUACUUAAA”, the “apparent KD of K4 kissing-loop reporter” value was found to be 138 nM (input ligand: FMN 200 uM); 220 nM (input ligand: arginine 13.2 mM); 181 nM (input ligand: none); 213 nM under setting [1]; 138 nM under setting [2].

Turning to “UGGAGUUGACGAAAAGUCAACUCCUGAGAAGGAGCGGACGAAAGUCCAGGUAGGUCGCUCACUACCAGUGAUGUUGGUACUGAAA”, the “apparent KD of K4 kissing-loop reporter” value is, setting by setting: (input ligand: FMN 200 uM) 187 nM; (input ligand: arginine 13.2 mM) 228 nM; (input ligand: none) 203 nM; under setting [1], 229 nM; under setting [2], 164 nM.

Take “UGGAUGUAGUGAUGUUAUAUAGAGAGUGAUACCAGUUUAGAGAAGAACCCUUGGCAGCAUAGAAGAGUAUCAUUGGAGAAGAAUG [ExTheophyl.Ar]”: the “apparent KD of K4 kissing-loop reporter” value stood at 308 nM (input ligand: FMN 200 uM); 347 nM (input ligand: arginine 13.2 mM); 320 nM (input ligand: none); 334 nM under setting [1]; 244 nM under setting [2].

For “UGGCAAGUGAUGUUUGCGUUUCCGCAGGAUACCAGUCUGUCUUGAGACCCUUGGCAGCCUGGGUACAGUCCAAGCGGUCACACGA [theeternabot_exclusion_KL_Theo_A_38]”, the “apparent KD of K4 kissing-loop reporter” value runs as follows: (input ligand: FMN 200 uM) 371 nM; (input ligand: arginine 13.2 mM) 297 nM; (input ligand: none) 405 nM; under setting [1], 375 nM; under setting [2], 285 nM.

For “UGGCGGCAAGGGUUAUUGGAAAGUAUUCGUCGAGGACCGGUACGGCCGCCACUCGAACACCAGUGAUGUUGGUCUGGUUUAAGCU [Exclusion Tryptophan A GF 22]”, the “apparent KD of K4 kissing-loop reporter” value (input ligand: FMN 200 uM) turned out to be 447 nM; the “apparent KD of K4 kissing-loop reporter” value (input ligand: arginine 13.2 mM) was determined as 690 nM; the “apparent KD of K4 kissing-loop reporter” value (input ligand: none) stood at 540 nM; the “apparent KD of K4 kissing-loop reporter” value under setting [1] was 636 nM; the “apparent KD of K4 kissing-loop reporter” value under setting [2] turned out to be 321 nM.

As to “UGUAAGCGCGUAGAUACCAGCAGACGAGUGAUGUUCGAGAGAUUAAGGAAAAGAAAGUGAUGCCCUUGGCAGCUAAUCAUAAGCG [whbob_Ex_Theo_B_sa95]”, the “apparent KD of K4 kissing-loop reporter” value (input ligand: FMN 200 uM) turned out to be 278 nM; the “apparent KD of K4 kissing-loop reporter” value (input ligand: arginine 13.2 mM) came to 300 nM; the “apparent KD of K4 kissing-loop reporter” value (input ligand: none) amounted to 288 nM; the “apparent KD of K4 kissing-loop reporter” value under setting [1] was 323 nM; the “apparent KD of K4 kissing-loop reporter” value under setting [2] was determined as 182 nM.

As for “UGUAAGUGUCAGCGAGUGAUGUUCGACGAUACCAGACUCGAUAGAGUCCCUUGGCAGCGUAAUGCAUGCCAAACUGGCACAUACU [#SwitchBubble 11 #K4Early]”, the “apparent KD of K4 kissing-loop reporter” value worked out at 453 nM (input ligand: FMN 200 uM); 438 nM (input ligand: arginine 13.2 mM); 560 nM (input ligand: none); 528 nM under setting [1]; 434 nM under setting [2].

For the sequence “UGUACCGAGUCAGGAUAUCAACGACUGACAAAGUCGGUCGAAUAUCCAGUGAUGUUGGAAAAUAAAUGAGAAGGGACUUGGUACU [FmnBS 12 #SwitchBubble #StaticStem]”, the “apparent KD of K4 kissing-loop reporter” value runs as follows: (input ligand: FMN 200 uM) 137 nM; (input ligand: arginine 13.2 mM) 361 nM; (input ligand: none) 360 nM; under setting [1], 341 nM; under setting [2], 344 nM.

On to “UGUACCGAGUCAGGAUAUGCCGUCGAAAGACGAAAGCAGUGAUGUUGCAUCGAUCGAAAGAUCGUUGCAGAAGGGACUUGGUACU [FmnBS 23 #SwitchBubble #StaticStem #DoubleMagnetSystem]”, for which the “apparent KD of K4 kissing-loop reporter” value was found to be 873 nM (input ligand: FMN 200 uM); 164 nM (input ligand: arginine 13.2 mM); 244 nM (input ligand: none); 158 nM under setting [1]; 297 nM under setting [2].

Consider “UGUACCGAGUCAGGAUAUGGCGUCGAAAGACGAAACCAGUGAUGUUGGAAUCGAUCGAAAGAUCGUCCAGAAGGGACUUGGUACU [FmnBS 21 #SwitchBubble #StaticStem #DoubleMagnetSystem]”, for which the “apparent KD of K4 kissing-loop reporter” value is, setting by setting: (input ligand: FMN 200 uM) 204 nM; (input ligand: arginine 13.2 mM) 382 nM; (input ligand: none) 377 nM; under setting [1], 349 nM; under setting [2], 359 nM.

“UGUACUCUGAAAGGAUAUGUGAGCCCUUUUUGUUAGUGAUGUUGACACGGAAACACCAUCAGACUUACAGAAGGUUCGUUGGGUA [theeternabot_sameState_KL_FMN_B_17]”: the “apparent KD of K4 kissing-loop reporter” value is, setting by setting: (input ligand: FMN 200 uM) 375 nM; (input ligand: arginine 13.2 mM) 183 nM; (input ligand: none) 241 nM; under setting [1], 286 nM; under setting [2], 252 nM.

In the case of “UGUAUGUGAUUUGAUACCAGACCAGCUGGUGGUAUCUGAGUGAUGUUCAGGUAGGUUUGGGUCCCUUGGCAGCAAAUCGCAUACU [KL-SSTheoB26]”, the “apparent KD of K4 kissing-loop reporter” value by setting is: (input ligand: FMN 200 uM) 168 nM; (input ligand: arginine 13.2 mM) 118 nM; (input ligand: none) 153 nM; under setting [1], 150 nM; under setting [2], 147 nM.

Turning to “UGUCAUUGGUCGGCCGCCACUUCAUAAAGAGUGAUGUUCUAAAAGACGGAUCGAAAGAUCUGUCGAAGGACCGGGAUCGAUGACU [FiskerMod 11 - Jieux - Same State - Tryptophan B]”, the “apparent KD of K4 kissing-loop reporter” value amounted to 1200 nM (input ligand: FMN 200 uM); 559 nM (input ligand: arginine 13.2 mM); 998 nM (input ligand: none); 569 nM under setting [1]; 275 nM under setting [2].

With “UGUCAUUGGUCGGCCGCCACUUCGUGUGGAGUGAUGUUUUGUAGAUUGUGUUGAAAGGUAUGGUGAAGGACCGGGACCGAUGACU [FiskerMod 21 - Jieux - Same State - Tryptophan B]”, the “apparent KD of K4 kissing-loop reporter” value (input ligand: FMN 200 uM) worked out at 1100 nM; the “apparent KD of K4 kissing-loop reporter” value (input ligand: arginine 13.2 mM) is 368 nM; the “apparent KD of K4 kissing-loop reporter” value (input ligand: none) was found to be 1090 nM; the “apparent KD of K4 kissing-loop reporter” value under setting [1] worked out at 242 nM; the “apparent KD of K4 kissing-loop reporter” value under setting [2] was 997 nM.

On to “UGUCAUUGGUCUGAUACCAGAAGAAAUCUGGAGUGAUGUUCCAAGUACGACAAAAGUCGCUUCCCUUGGCAGCAGACCGAUGACU [TheoBS 21 #SwitchBubble 13 #StaticStem]”, for which the “apparent KD of K4 kissing-loop reporter” value (input ligand: FMN 200 uM) is 705 nM; the “apparent KD of K4 kissing-loop reporter” value (input ligand: arginine 13.2 mM) amounted to 510 nM; the “apparent KD of K4 kissing-loop reporter” value (input ligand: none) is 638 nM; the “apparent KD of K4 kissing-loop reporter” value under setting [1] is 406 nM; the “apparent KD of K4 kissing-loop reporter” value under setting [2] is 683 nM.

Take “UGUGAUGUGUAGAGUGAUGUUUUGAAGGAUACCAGAGUGUUGUUAUUCCCUUGGCAGCUUGAGUGAUGUUUGAUGUUGUUGUUGU [efvrmullin]”: the “apparent KD of K4 kissing-loop reporter” value worked out at 228 nM (input ligand: FMN 200 uM); 120 nM (input ligand: arginine 13.2 mM); 194 nM (input ligand: none); 133 nM under setting [1]; 152 nM under setting [2].

With “UGUGUUGUGUAGUGUUAUGUUUUGAGGGAUACCAGAGUGUUUUUAUUCCCUUGGCAGCUUGAGUGAUGUUUGAUGUUGUUGUUGU [jlljmullin]”, the “apparent KD of K4 kissing-loop reporter” value (input ligand: FMN 200 uM) is 297 nM; the “apparent KD of K4 kissing-loop reporter” value (input ligand: arginine 13.2 mM) was 178 nM; the “apparent KD of K4 kissing-loop reporter” value (input ligand: none) stood at 218 nM; the “apparent KD of K4 kissing-loop reporter” value under setting [1] worked out at 219 nM; the “apparent KD of K4 kissing-loop reporter” value under setting [2] was determined as 184 nM.

Consider “UGUGUUUUUUUGAUGUUUGUUGUAAAAUGGCAGGAUAUCGUAGAGGCGAGAAGGGCUUUUAUGCGUUAUGAGUGAUGUUUGUAGG [qqdqmullin]”, for which the “apparent KD of K4 kissing-loop reporter” value runs as follows: (input ligand: FMN 200 uM) 316 nM; (input ligand: arginine 13.2 mM) 297 nM; (input ligand: none) 315 nM; under setting [1], 336 nM; under setting [2], 241 nM.
